{"source": "the nanobody polyreactivity screen of Harvey et al. (2022)", "data": [{"test": "yeast display, Sf9 membrane polyspecificity reagent, FACS + sequencing; frameworks hold sequencing errors", "procedure,_shortened": "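A synthetic nanobody library was expressed on Saccharomyces cerevisiae BJ5465 by galactose induction for 36–48 hours. The library was stained for 1 hour at 4 °C with 10% biotinylated, detergent-solubilized Sf9 membrane reagent and enriched with streptavidin microbeads before FACS. Low and high (top ~1%) gates were set on anti-HA fluorescence for expression and streptavidin fluorescence for reagent binding, and each polyreactivity label reflects the gate of origin.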", "values": [{"sequence": "QVQLVESGAGLVQAGGSLRLSCAASGRIFNWYVMGWYRQAPGKERELVAAINSGGITKYADSVKGRFTISRDNAKNTVYLQMNSLKPEDTAVYYCAAYYRRYDYDYWGQGTQVTVSS", "polyreactivity (PSR sort gate)": "high polyreactivity"}, {"sequence": "QVQLVESGGGLVQAGGSLRLSCAAAGFTFYIYAMGWYRKAPGKERELVAAITTTTGSTYYADSVKGRFTISRDNAKNTVYLQMNSLKPEDTAVYYCAAEGHYYYFGYYYWGQGTQVTVSS", "polyreactivity (PSR sort gate)": "low polyreactivity"}, {"sequence": "QVQLVESGGGLVQAGGSHRLSFAASGSIFTRYAMGWYRPAHGKEREFVAGISWTGGSTYYADSVKGRFTISRDIAKNTVYLQMYRLKPEDTGVYYCAAGYWYSAFSGWWDYSDLYYWGQGTQVTVSS", "polyreactivity (PSR sort gate)": "high polyreactivity"}, {"sequence": "QVQLVESGGGLVQAGGSLRLSCAASGSIFPYYALGRYRQAPGKERELVADITSSGGSTYYADSVKGRFTISRDNAKNTVYLQMNSLKPEDTAVYYCAALYWFYVYPFTEYDYWGQGTQVTVSS", "polyreactivity (PSR sort gate)": "low polyreactivity"}, {"sequence": "QVQLVESGGGLVQAGGSLRLSCAASGFTFTSYAMGWYRQAPGKERELVAAINRSGGSTTYADSEKGRFTISRDNAKNTVYLQMNSLKPEDTAVYYCAKAFRGHYWGQGTQVTVSS", "polyreactivity (PSR sort gate)": "high polyreactivity"}, {"sequence": "QVQLVESGGGLVQAGGSLRLSCAASGLTFYVYAMGWYRQAPGKEREFVAAITRSGGSTHFADSVKGGFTISRDNAKYTVYLQMNSLKPEDTAVYYGAARAIRYYIRYYYWGQGTQVTVSS", "polyreactivity (PSR sort gate)": "high polyreactivity"}, {"sequence": "QDQLVESGGGLVQAGGSLRLSCAASGRTFVFYAMGWYRQAPGKERELVAAITSGTSTNYADSVKGRFTISRDNAMNTVYLQMNSLKPEDTAVYYCAAYWTDLTYSIGFGYWGQGTQVTVSS", "polyreactivity (PSR sort gate)": "low polyreactivity"}, {"sequence": "QVQLVESGGGLVQAGGSLRLSCAASGSTFLSYVMGWYRQAPGKERELVAAITGTGGRTYYADSVKGRFTISRDNAKNTVYLQMNSLKPEDSAVYYCTAYRKHGYDYWGQGTQVTVSS", "polyreactivity (PSR sort gate)": "high polyreactivity"}, {"sequence": "QVQLVESGGGLVQARGSLRLTWAASGRTFGINAMGWYRQAPGKERELVAVISGSGGNTYYADSVKGRFTISRDNAKNTVYLQMNSLKPEDTAVYYFATSYEKFRYDHGYWGQGTQVTVSS", "polyreactivity (PSR sort gate)": "low polyreactivity"}, {"sequence": "QVQLVESGGGLVQAGGSLRLSCAASGIIMPSYVMGWYRQAPGKERELVAAITRSGGNTYYADSVKGRFTISRDNAKNTVYLQMNSLKPEDTAVYYCAARAPVRRYRAYEFDYWGQGTQVTVSS", "polyreactivity (PSR sort gate)": "high polyreactivity"}, {"sequence": "QVQLVESGVGLVKAGGILRLSCAASGFTFASNVMGWSRQAPGKERELVAAITSGASTNYADSVKGRFTISRDNAKNTVYLQMNSLKPEDTAVYYCAAGRQWYVFYEFDYWGQGTQVTVSS", "polyreactivity (PSR sort gate)": "high polyreactivity"}, {"sequence": "QVQLVESGGGLVQAGGGLRLSFPASGRTFTVNAMGWSRQSPGKERELVATITYGGGSRYYADSVKGRFTISRDNAKNSVYLQMNSLKPEDTAVYYCAARSDNYHVYYFKRWGKYYSWGQGTQVTVSS", "polyreactivity (PSR sort gate)": "low polyreactivity"}, {"sequence": "QVQLVESGGGLVQAGGTLRLSCAASGFTFAVYAMGWYRQAPGKERELVAAISRSGTRTYYADSVKGRFTISRDNSKNPVYIQMNSLKPEDTAVYYCAADKYRNGYDYWGQGTQVTVSS", "polyreactivity (PSR sort gate)": "low polyreactivity"}, {"sequence": "QVQLVESGGGLVQAGGSLRLSCAASGRTFGKYAMGWYIQAPGKEREFVAAISRSGGNTYYADSVKGRFTISRDNAKNTVYLQMNSLKPEDTAVYYCARGLSTYVLSHGLEYRTYYYWGQGTQVTVTS", "polyreactivity (PSR sort gate)": "high polyreactivity"}, {"sequence": "QVQLVESGGGLVQAGGSLRLSCAASGSTFKRNAMGWYRQAPGKERELVAAISWRGTSTYYADSVKGRFTISRDNAKNTVYLQMNSLKPEDTAVYYCAADRGSSVRYGYWGQGTQVTVSS", "polyreactivity (PSR sort gate)": "high polyreactivity"}, {"sequence": "QVQLVESGGGLVQAGGSLRLSCAASGRTFSPNTMGWYRQAPGKEREFVAAITASGDSTYYADSVKGRFTISRDNAKNTVYLQMNSLKPEDTAVYYCDTDSNWYWGFNYWGQGTKVTVSS", "polyreactivity (PSR sort gate)": "low polyreactivity"}, {"sequence": "QVQLVESGGVLVQAGGSLRLSCAATGSIINRYAMGWYRQAPRKERELVAAISSTGSTYYADSVKGRFTISRDNAKNTVYLQLNSLKPEDTAVYYCNADATLDWLRVDSYVYWGQGTQVTVSS", "polyreactivity (PSR sort gate)": "low polyreactivity"}, {"sequence": "QVQLVESGGGLVQAGGSLRISCAASGFTFVSNDMGWYRQAPGKERELVAAISQGGGSTYYADSVKGRFTISRDNAKNTVYLQMNSLKPEDTAVYYCAADIWARYYFWGFEHDYWGQGTQVTVSS", "polyreactivity (PSR sort gate)": "low polyreactivity"}, {"sequence": "QVQLVESGGGLVQAGGSIRLTCAASGTIFPYYAKGWYRQAPGKERELVAAISDSGDSTYYADSVKGRFTISRDNAKNTVYLQMNSLKPEDTAVYYCAADQTSSYYDPWGDYWGQGTQVTVSS", "polyreactivity (PSR sort gate)": "low polyreactivity"}, {"sequence": "QVQLQESGGGLVQAGGSLRLSCAATGRTFRYNTMGWYRKATGKERELVARITWSGGSTYYADSVKGRFTISRDNAKNTVYLQMNSLKPEDTAVYYCAAVPILVYRWFQSYTGDYDYWGQGTQVTVSS", "polyreactivity (PSR sort gate)": "low polyreactivity"}, {"sequence": "QVQLVESGGGLVQAGGSLRLSCAASGNIFSRNAMGWYRQAPGKERELVASIDNSTSGTYYADSVKGRFTISRDNAKNTVYLQMKSLKPEDTAVYYCAATPLVDGSSIPREGDYWGQGTQVSVSS", "polyreactivity (PSR sort gate)": "low polyreactivity"}, {"sequence": "QVQLVESGGGLVQAGGSLRLSCAASGFTFLKYAMGGYRQAPGKERDLVARITSGGRTYYADSVKGRFTISRDNAKNTVYLQMNSLKPEDTAVYYCNAVKSYASLYAVFYDWGQGTQVTVSS", "polyreactivity (PSR sort gate)": "high polyreactivity"}, {"sequence": "QVQLVESGGGLVQAGGSLRLSCAASGGIIDWYVMGWYSQARGKERELVAAISYNGGSTYYADSVKGRFTISRDNAKNTGYLQMNSLKPEDTAVYYCAAAVTWPYRYVWYDYWGQGTQVTVSS", "polyreactivity (PSR sort gate)": "low polyreactivity"}, {"sequence": "QVQLVESGGGLVQAGGSLRLSCAASGSTFILYAMGWYRQAPGKERELVAAISSDGSTYYADSVKGRFTISRDNAKNTVYLQMNSLKPEDTAVYYCAAYGYDADTGYDYWGLGTQVTVSS", "polyreactivity (PSR sort gate)": "low polyreactivity"}, {"sequence": "QVQLVESVGGVVQAGGSLRLSCAASGFTFKYYDMGWYRQAPGKERELVAAISRRGGSTSYADSVKGRFTISRDNAKNTVYLQMNSLKPEDTAVYYCAADSSFERSSDYWGHGTQVTVSS", "polyreactivity (PSR sort gate)": "high polyreactivity"}, {"sequence": "QVQLVESGGGLVQAGGSLRLSCAASGRTFIRNAMGWYRQAPGKERELVAAISRSGGRTYYADSVKGRFTISRDNAKNTVYLQMNSLKPEDTAVYYCAAGSYQRYAFDYWGQGTQVTVSS", "polyreactivity (PSR sort gate)": "high polyreactivity"}, {"sequence": "QVQLVESGGGLVQAGGSLRLSCAASGRTFDVYAMGWYRQAPGKERELVAVIRGRAGSTYYADSVKGRFTISRDNAKNTVYLQMNSLKPEDTAVYYCAAAKYVRRGLRAWRGDEYDYWGQGTQVTVSS", "polyreactivity (PSR sort gate)": "high polyreactivity"}, {"sequence": "QVQLVESGGGLVQAGGSLRLSSAASGSTFWFNAMGWYRQAPVKERELVAGISERGGRTYYADSVKGRFTISRDNAKNTVYLQMNRLKPEDPAVYYSNAGISPRRTTYYKYDYWGQGTQVNVSS", "polyreactivity (PSR sort gate)": "high polyreactivity"}, {"sequence": "QVQLVESGGGLVQAGGSLRLSCAAYGRTLRPYAMGWYRQAPGKERELVASIRRDGSTYADSVKGRYTISLDNAKNTVYLQMNSLKPEDTAVYYCAAARGYPLSYWGQGTQVTVSS", "polyreactivity (PSR sort gate)": "low polyreactivity"}, {"sequence": "QVQLVESGGGLVQAVGSLRLSCAASGLTFYIYVMGCYRQAPGKERELVAAISGSGGSTYYADSVKGRFTISRDNAKNTVYLHLNSLKLEDTALYYCNAEDWWRYLRGEDDYWGQGTQVTVSS", "polyreactivity (PSR sort gate)": "high polyreactivity"}, {"sequence": "QVHLVESGGGLVQAGGSLRLSCAASGSTIRFNAMGWYRQAPGKERELVAAISGSGGSTYYADSVKGRFTISRDNAKKTVYLQMNSLKPEDTAVYYCAASASSRSYFKSYYWGQGTQVTVSS", "polyreactivity (PSR sort gate)": "high polyreactivity"}, {"sequence": "QVQLEESGGGLVQAGGSLRLSCAASGFTFSLYGMGWYRQAPGKERELVAAIRSGGSTNYADSVKGRFTISRDNAKNTVYLQMNSLKPEDTAVYYCATDIHSVNNNRDKHDYDYWGQGTLVTVSS", "polyreactivity (PSR sort gate)": "low polyreactivity"}, {"sequence": "QVQIEESGGGLVQAGGSLRLSCAASGRIFSLNVMGWSRQAPRKERELVATIRGRGTSTYYADSVKGRFTISRDNAKNTVYLQMNSLKPEDTAVYYCAASGHGAYGYWGQGTQVTVSS", "polyreactivity (PSR sort gate)": "low polyreactivity"}, {"sequence": "QVQLVESGGGLVQAGGSLRLSCAASGFIFPSNVMGWYRQATGKERELVAAISTRGGRTYYADSVKGRFTISRDNAKNTVYLQMNSLKPEDTAVYYCAASISRQGGVGYWGQGTQVTVSS", "polyreactivity (PSR sort gate)": "high polyreactivity"}, {"sequence": "QVQLVESGGGLVQAGGSLRLSCAASGFTVVSYAMGWYRQAPGKERELVAAITYSGTSTYYADSVKGRFTISRDKAKNTVYLQMNSLKPEDTAVYYCNADSSWVPIWYEYDYWGHGTQVTVSS", "polyreactivity (PSR sort gate)": "low polyreactivity"}, {"sequence": "QVQLVESGGGLVQAGGSLRLICADSGSTFSPNGMGWYTQAHGKERELVAAITSVGSTYYAESVEGRFTISRDNELNTVYFQMNSLQPVDTAVFYCAKGQRDSEEYDYWGQGTQVTVSS", "polyreactivity (PSR sort gate)": "low polyreactivity"}, {"sequence": "QVQLVESGGGLVQAGGRLRLSCAASGLTFTYNAMGWYRQEPGKERELVAAITSGGNTNYADSVKGRFTISRDNAKNTVYLQMNSLKPEDTAVYYCATDRKNGISGRYGYWGQGTQVTVSS", "polyreactivity (PSR sort gate)": "low polyreactivity"}, {"sequence": "QVQLVESGGGLVQAGGSLRLSCAASGSILGDYGMGWYRQAPGKERELVAAITWNGDSTYYADSVKGRFTISRDNAKNTVYLQMNSLKPEDTAVYYCAADLQDYKYYPWYGYWGQGTQVTVSS", "polyreactivity (PSR sort gate)": "low polyreactivity"}, {"sequence": "QVHLVESGGGLVQAGGSLRLSFAASGSTFEDNAMGWYRQAPGKERELVAGISTNGGSTSYADSVKGRFTISRDNAKNTVYLQMNSLKPEVTAVYYCAKGLYVQFDYWGQGTQVTVSS", "polyreactivity (PSR sort gate)": "low polyreactivity"}, {"sequence": "QVQLVESGGGLVQAGGSLRLSCAASGSIFSYYAMGWYRQAPGKERELVAAISRSGVSTYYADSVKGRFTISRDNAKNTVYLQMNSLKPEDTAVYYCNAVFTWPRRKYGYDYWGQGTQVTVSS", "polyreactivity (PSR sort gate)": "high polyreactivity"}, {"sequence": "QVQLVDSGGAVVQAGGSLRLSCAASGYTFYRYAMGWYRQAPGKERELVAAMSRRGTRTYYADSVKGRFTISRDNAKNTVYLQMNSLKPEDTAVYFCNARRVRDVWWQLKRGDYWGQATQVTVSS", "polyreactivity (PSR sort gate)": "high polyreactivity"}, {"sequence": "QVQLVESGGGLVQAGGSLRLSCAPSGRISGWYAMGWYRQAPGKQRELVASISSSGGSTYYADSVKGRFTISRDNAKNSVYLQMNSLKPEDTAVYYCAVRRYNWSFYRGYDYWGQGTQVTVSS", "polyreactivity (PSR sort gate)": "high polyreactivity"}, {"sequence": "QVQLVESGGGLVQARVSLRLSCAASGRIYGYTMGWYRQAPGKERELVAAITRNGGSTYYADSVKARFTISRDNSKNTVSLQMNSLKPEDNAVYYCAARNAFGTYYAWGQGTQVTVAS", "polyreactivity (PSR sort gate)": "high polyreactivity"}]}]}
